Numbering of substitutions follows the chain as printed. Names may count otherwise.
B1: human cytoglobin, wildtype (natural protein, UniProt Q8WWM9 1-190, looked up)
chain: MEKVPGEMEIERRERSEELSEAERKAVQAMWARLYANCEDVGVAILVRFFVNFPSAKQYFSQFKHMEDPLEMERSPQLRKHACRVMGALNTVVENLHDPDKVSSVLALVGKAHALKHKVEPVYFKILSGVILEVVAEEFASDFPPETQRAWAKLRGLIYSHVTAAYKEVGWVQQVPNATTPPATLPSSGP
notes: cytoglobin, human; gene bought from OriGene and transferred into pET28a; monomer runs at 21 kDa; Haem protein; The preparation holds monomer, dimer and a minor polymerised fraction; also called Cygb; WT Cygb
B2: human cytoglobin H81Y (natural protein, UniProt Q8WWM9 1-190, looked up)
chain: B1 chain with H81Y
notes: cytoglobin, human, distal histidine mutant; Haem protein; also called H81Y Cygb; histidine 81 to tyrosine mutation
B3: human cytoglobin H81V (natural protein, UniProt Q8WWM9 1-190, looked up)
chain: B1 chain with H81V
notes: cytoglobin, human, distal histidine mutant; Haem protein; also called H81V Cygb; histidine 81(E7) to valine mutation

Target: the molecule itself
Experiment: SEC; G75 Superdex column equilibrated with 0.1 M sodium phosphate buffer pH 7.4; absorbance at 280 nm; monomer to dimer of the recombinant protein as purified

Row | Protein | stoichiometry N | binding result
1 | B1 | 2 | 
2 | B2 |  | binds
3 | B3 |  | binds
